{
  "source": "patent US20060134087A1",
  "about": "“ITI-D1 Kunitz domain mutants as hNE inhibitors” (Dyax Corp., priority 1988, published 2006)",
  "molecules": {"B1": {"name": "Secretory Leucocyte Protease Inhibitor (protein)", "chain": "SGKSFKAGVCPPKKSAQCLRYKKPECQSDWQCPGKKRCCPDTCGIKCLDPVDTPNPTRRKPGKCPVTYGQCLMLNPPNFCEMDGQCKRDLKCCMGMCGKSCVSPVKA"}},
  "target": "T1, hNE (Homo sapiens, UniProt P08246)",
  "T1 sequence (P08246 30-267)": "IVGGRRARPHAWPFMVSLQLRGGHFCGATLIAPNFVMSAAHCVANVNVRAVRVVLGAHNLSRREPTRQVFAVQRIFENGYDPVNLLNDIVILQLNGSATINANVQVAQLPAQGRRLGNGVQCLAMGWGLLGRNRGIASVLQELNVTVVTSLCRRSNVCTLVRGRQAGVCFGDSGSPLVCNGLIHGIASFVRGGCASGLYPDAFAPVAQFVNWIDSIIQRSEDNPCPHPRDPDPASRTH",
  "assay": "Resistance to oxidative inactivation by Chloramine-T, residual hNE-inhibition activity",
  "type": "physicochemical",
  "conditions": "20 minutes at RT",
  "method": "At the end of the incubation period, the oxidation reactions were quenched by adding methionine to a final concentration of 4 mM. After a further 10 minute incubation, the quenched reactions were diluted and assayed for residual inhibitor activity in our standard hNE-inhibition assay.\nInhibitors were incubated in the presence of Chloramine-T at the molar ratios indicated for 20 minutes at RT. Oxidation reactions were quenched by adding methionine to a final concentration of 4 mM. Residual hNE-inhibition activity remaining in the quenched reactions is shown as a percentage of the activity observed with no added oxidant.",
  "data": [
    {"molecule": "B1", "values": [
      {"measurement": "Percent Residual hNE-Inhibitory Activity", "setting": "Molar Ratio CHL-T:Inhibitor 0", "value": 100, "unit": "%"},
      {"measurement": "Percent Residual hNE-Inhibitory Activity", "setting": "Molar Ratio CHL-T:Inhibitor 0.29", "value": 93, "unit": "%"},
      {"measurement": "Percent Residual hNE-Inhibitory Activity", "setting": "Molar Ratio CHL-T:Inhibitor 1.2", "value": 65, "unit": "%"},
      {"measurement": "Percent Residual hNE-Inhibitory Activity", "setting": "Molar Ratio CHL-T:Inhibitor 2.4", "value": 48, "unit": "%"},
      {"measurement": "Percent Residual hNE-Inhibitory Activity", "setting": "Molar Ratio CHL-T:Inhibitor 5.9", "value": 18, "unit": "%"},
      {"measurement": "Percent Residual hNE-Inhibitory Activity", "setting": "Molar Ratio CHL-T:Inhibitor 12.", "value": 15, "unit": "%"},
      {"measurement": "Percent Residual hNE-Inhibitory Activity", "setting": "Molar Ratio CHL-T:Inhibitor .59", "value": 82, "unit": "%"},
      {"measurement": "Percent Residual hNE-Inhibitory Activity", "setting": "Molar Ratio CHL-T:Inhibitor .88", "value": 73, "unit": "%"}
    ]}
  ]
}
